Reference: IntAct's records for PubMed 11100732

B1: Autophagy-related protein 3 (Saccharomyces cerevisiae), P40344 (parent)
chain: MIRSTLSSWREYLTPITHKSTFLTTGQITPEEFVQAGDYLCHMFPTWKWNEESSDISYRDFLPKNKQFLIIRKVPCDKRAEQCVEVEGPDVIMKGFAEDGDEDDVLEYIGSETEHVQSTPAGGTKDSSIDDIDELIQDMEIKEEDENDDTEEFNAKGGLAKDMAQERYYDLYIAYSTSYRVPKMYIVGFNSNGSPLSPEQMFEDISADYRTKTATIEKLPFYKNSVLSVSIHPCKHANVMKILLDKVRVVRQRRRKELQEEQELDGVGDWEDLQDDIDDSLRVDQYLIVFLKFITSVTPSIQHDYTMEGW
partner: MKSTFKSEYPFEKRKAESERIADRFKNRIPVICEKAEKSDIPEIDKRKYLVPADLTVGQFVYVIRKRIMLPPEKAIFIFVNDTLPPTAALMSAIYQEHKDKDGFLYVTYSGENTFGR

Variants of: B1
Conditions: with atg8_yeast ATG8, P38182

Variant	effect of a mutation on the interaction
MIRSTLSSWREYLTPITHKSTFLTTGQITPEEFVQAGDYLCHMFPTWKWNEESSDISYRDFLPKNKQFLIIRKVPCDKRAEQCVEVEGPDVIMKGFAEDGDEDDVLEYIGSETEHVQSTPAGGTKDSSIDDIDELIQDMEIKEEDENDDTEEFNAKGGLAKDMAQERYYDLYIAYSTSYRVPKMYIVGFNSNGSPLSPEQMFEDISADYRTKTATIEKLPFYKNSVLSVSIHPAKHANVMKILLDKVRVVRQRRRKELQEEQELDGVGDWEDLQDDIDDSLRVDQYLIVFLKFITSVTPSIQHDYTMEGW [C234A]	disrupting interaction
MIRSTLSSWREYLTPITHKSTFLTTGQITPEEFVQAGDYLCHMFPTWKWNEESSDISYRDFLPKNKQFLIIRKVPCDKRAEQCVEVEGPDVIMKGFAEDGDEDDVLEYIGSETEHVQSTPAGGTKDSSIDDIDELIQDMEIKEEDENDDTEEFNAKGGLAKDMAQERYYDLYIAYSTSYRVPKMYIVGFNSNGSPLSPEQMFEDISADYRTKTATIEKLPFYKNSVLSVSIHPSKHANVMKILLDKVRVVRQRRRKELQEEQELDGVGDWEDLQDDIDDSLRVDQYLIVFLKFITSVTPSIQHDYTMEGW [C234S]	disrupting interaction
